Columns and labels:
[1] = target: large surface protein of hepatitis B virus (LHBS), full-length (hepatitis B virus); experiment: chemiluminescent sandwich ELISA on pooled HBsAg(+) sera; pre-S1 antibody coated, pre-S2 antibody detecting (platform 1)
[2] = target: pre-S region E. coli recombinant protein (hepatitis B virus); experiment: chemiluminescent ELISA, serially diluted antigen coated, antibody 1:2000
[3] = target: large surface protein of hepatitis B virus (LHBS), full-length (hepatitis B virus); experiment: chemiluminescent sandwich ELISA on pooled HBsAg(+) sera; pre-S1 antibody coated, HBS antibody detecting (platform 2)

pre-S region E. coli recombinant protein (hepatitis B virus), sequence (P03141 2-174): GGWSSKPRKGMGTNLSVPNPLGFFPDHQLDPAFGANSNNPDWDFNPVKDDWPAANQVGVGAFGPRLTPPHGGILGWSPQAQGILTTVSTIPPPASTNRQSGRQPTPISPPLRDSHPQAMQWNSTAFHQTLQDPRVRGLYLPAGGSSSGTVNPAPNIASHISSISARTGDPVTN

Row | Binder | limit of quantification (LOQ) [1] | limit of linearity (LOL) [2] | limit of quantification (LOQ) [2] | limit of quantification (LOQ) [3]
1 | pre-S2 monoclonal antibody (antibody, V domains shown) VH: QVQLQQPGTELVKPGTSVKLSCKASGYTFTSYWMHWVKLRPGQGFEWIGEINPSNGITNYNEKFKRKATLTVDKSSTTAYMQLSSLTFEDSAVYYCTIGYDYGSNYEAMDFWGQGTSVTVSS VL: DIVMTQAAFSNPVTLGTSASMSCRSSKSLLHSNGITYLYWYLQKPGQSPQLLIYQMSNLASGVPDRFSSGGSGTDFTLRISRVEAEDVGVYYCAQNLELPWTFGGGTKLEIK | 13.5 ng/mL | 1.56 ng/mL | 0.04 ng/mL | –
2 | HBS monoclonal antibody (antibody, V domains shown) VH: VQLQQSGPELVKPGASVKMSCKASGYTLTDYVIGWVKQRTGQGLEWIGEVYPGSVYTSYNEKFKGKATLTADKSSNTAYMQLSGLTSDDSAVYFCAYDGYSPFDYWGQGTTLTVSS VL: NIVMTQSPKSMSMSVGERVTLTCKASENVGTYVSWFQQKPGQSPKLLIYGASNRYIGVPDRFTGSGSATDFTLTISSVQAEDLAEYHCGQSYNYPHTFGGGTKLVIKR | – | – | – | 1.7 ng/mL
